Data as given in paper PMC12352893.

Target: purified recombinant cathepsin A (CTSA) (human) (UniProt P10619)
Sequence (P10619 29-480): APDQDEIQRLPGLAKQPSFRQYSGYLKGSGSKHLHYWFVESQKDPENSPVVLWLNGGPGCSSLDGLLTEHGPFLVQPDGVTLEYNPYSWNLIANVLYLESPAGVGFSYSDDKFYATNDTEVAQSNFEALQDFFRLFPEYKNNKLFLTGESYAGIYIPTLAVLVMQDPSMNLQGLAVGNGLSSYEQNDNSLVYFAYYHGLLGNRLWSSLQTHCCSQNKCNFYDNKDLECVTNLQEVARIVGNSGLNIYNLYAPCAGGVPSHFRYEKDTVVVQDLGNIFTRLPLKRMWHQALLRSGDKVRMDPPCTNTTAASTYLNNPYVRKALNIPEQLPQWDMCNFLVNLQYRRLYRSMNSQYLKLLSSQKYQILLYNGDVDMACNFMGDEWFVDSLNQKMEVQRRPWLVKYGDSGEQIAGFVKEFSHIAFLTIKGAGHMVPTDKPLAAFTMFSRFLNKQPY

purified recombinant NEU1 (from UniProt Q99519 48-415) (enzyme)
NEU1 enzymatic activity (moles of substrate/moles of NEU1/sec) of recombinant NEU1 incubated with CTSA; fold reduction by high HS concentrations (≥0.3 mg/mL): 100 fold
